Laboratory results from FireProtDB (doi:10.1111/j.1432-1033.1992.tb17411.x).

B1: Cystatin-A wild type, P01040 (protein)
chain: MIPGGLSEAKPATPEIQEIVDKVKPQLEEKTNETYGKLEAVQYKTQVVAGTNYYIKVRAGDNKYMHLKVFKSLPGQNEDLVLTGYQVDKNKDDELTGF
B2: Cystatin-B wild type, P04080 (protein)
chain: MMCGAPSATQPATAETQHIADQVRSQLEEKENKKFPVFKAVSFKSQVVAGTNYFIKVHVGDEDFVHLRVFQSLPHENKPLTLSNYQTNKAKHDELTYF

Settings: Homo sapiens; pH 5; Thermal; DSC; Sodium acetate 0.02 M; NaCl 0.13 M; reversible: yes; whole UniProt chain shown

Row | Protein | Tm | unfolding enthalpy (calorimetric) | unfolding enthalpy (van 't Hoff)
1 | B1 | 90.8 °C | 113 kcal/mol | 129 kcal/mol
2 | B2 | 50.2 °C | 70 kcal/mol | 73 kcal/mol

Same assay, conditions: Homo sapiens; pH 6.5; Thermal; DSC; Sodium phosphate 0.01 M; NaCl 0.13 M; reversible: yes; whole UniProt chain shown

Row | Protein | Tm | unfolding enthalpy (calorimetric) | unfolding enthalpy (van 't Hoff)
3 | B1 | 94.5 °C | 116 kcal/mol | 148 kcal/mol

Same assay, conditions: Homo sapiens; pH 6.5; Thermal; DSC; Sodium phosphate 0.01 M; NaCl 0.13 M; reversible: no; whole UniProt chain shown

Row | Protein | Tm | unfolding enthalpy (calorimetric)
4 | B2 | 64.9 °C | 78 kcal/mol

Same assay, conditions: Homo sapiens; pH 8.1; 10 °C; Thermal; DSC; HEPES 0.01 M; NaCl 0.13 M; reversible: yes; whole UniProt chain shown

Row | Protein | unfolding free energy
5 | B2 | 6 kcal/mol

Same assay, conditions: Homo sapiens; pH 8.1; 25 °C; Thermal; DSC; HEPES 0.01 M; NaCl 0.13 M; reversible: yes; whole UniProt chain shown

Row | Protein | unfolding free energy
6 | B2 | 5.9 kcal/mol

Same assay, conditions: Homo sapiens; pH 8.1; 45 °C; Thermal; DSC; HEPES 0.01 M; NaCl 0.13 M; reversible: yes; whole UniProt chain shown

Row | Protein | unfolding free energy
7 | B2 | 3.99 kcal/mol

Same assay, conditions: Homo sapiens; pH 8.1; 50 °C; Thermal; DSC; HEPES 0.01 M; NaCl 0.13 M; reversible: yes; whole UniProt chain shown

Row | Protein | unfolding free energy
8 | B2 | 3.2 kcal/mol

Same assay, conditions: Homo sapiens; pH 8.1; Thermal; DSC; HEPES 0.01 M; NaCl 0.13 M; reversible: no; whole UniProt chain shown

Row | Protein | Tm | unfolding enthalpy (calorimetric)
9 | B2 | 65.9 °C | 81 kcal/mol
